experiment: yeast display, Sf9 membrane polyspecificity reagent, FACS + sequencing; frameworks hold sequencing errors
How it was run: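 A nanobody's polyreactivity label depends on the gate it was sorted from. Yeast display cells were stained with 10% biotinylated, detergent-solubilized Sf9 membrane reagent for 1 hour at 4 °C, enriched on streptavidin microbeads and sorted by FACS. The low and high (top ~1%) gates were set on anti-HA fluorescence for expression and streptavidin fluorescence for reagent binding.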

Sequence | polyreactivity (PSR sort gate)
QVQLGESGGGLVQAGGSLRLSCAASGLILYGYAMGLYRPAPGKERELVATITIGGSTYYADSVKGRFTISRDNAKNTVYLQMNRLNPEDTAVYYCAAEDTLAGSVARFGEYDYWGQGSQVTVSS | low polyreactivity
QVQLGESGGGLVQAGGSLRLSCAASGRIFNVNVMGWYRQAPGKDMELVAAITSGGSTNYADSVKGRFTISRDNAKNTVYLQMNSLKPEDTAVYYCAKDYQYGFGEYPYDYWGQGTQVTVSS | low polyreactivity
QVQLGESGGGLVQAGGSLRLSCAASGRIFSTYVMGLYRQAPGKERELVAAITRGGSTNYADSVKGRFTISRDNAKNTVYLQMNSLKPEDTADYYCNAQRRGTYYWGQGTQVTVSS | high polyreactivity
QVQLGESGGGLVQAGGSLRLSCAASGRIIYTNAMGWYRQAPGKETELVAAINRSGGITYYADSVKGRFTISRDNAKNTVYLQMNSLKPEDTAVYYCAKDYSWASYKHDYWGQGTQVTVSS | low polyreactivity
QVQLGESGGGLVQAGGSLRLSCAASGRTFGLKAMGWYRQAPGKERELVAAINWRGTSTYYADSVKGRFTISRDNAKNTVYLQMNSLKPEDTAVYYCAARRSVGGYGYWGQGTQVTVSS | high polyreactivity
QVQLGESGGGLVQAGGSLRLSCAASGRTFILNAMGWYRQAPGKERELVAAISWSGGSTYYADSVKGRFTISRDNAKNTVYLQMNSLKPEDTAVYYCAAVTYAYLFHTYDYWGQGTQVTVSS | low polyreactivity
QVQLGESGGGLVQAGGSLRLSCAASGRTFYWYDMGWYRQAPGKERELVAAITRSGGSTDYADSVKGRFTISRDNAKNTVYLQMNSLKPEDTAVYYCNADYEVSSQRPAFDYWGQGTQVTVSS | low polyreactivity
QVQLGESGGGLVQAGGSLRLSCAASGSIFKVNVMGWYRQEPGKERELVAAISRSGGNTYYADYVKGRFTISRDNAKNTVYLKMNSLKPEDTAVYYCAKDRRYYKAYDYWGQGTQVTVSS | low polyreactivity
QVQLGESGGGLVQAGGSLRLSCAASGSIFTFNTMGRYRQAPGKERELVATISSGGRTSYADSVKGRFTISRDNAKNTVYLQMNSLKPADTAVYYCNKGYYGYTYVESNYWGLGTQVTVSS | low polyreactivity
QVQLGESGGGLVQAGGSLRLSCAASGSIIQQYAIGWYRQAPGKERELVAAISWGDGSTYYADSVKGRFTISRDNAKNTVYLQKNSLKPEDTAVYYCNAYASAPLWSLEDDYWGQGTQVTVSS | low polyreactivity
QVQLGESGGGLVQAGGSLRLSCAASGSISTYYPMGWYRQATGKERELVASITSRASTNYADSVKGRFTISRDNAKNTVYLQMNSLKPEDTAGNYCNADQRDYGSYVTKLDYWGQGTQVTVSS | low polyreactivity
QVQLGESGGGLVQAGGSLRLSCAASGSTFAKYVMGWYRQAPGKERELVAAISRRGSSTYYADSVKGRFTISRDNAKNTVYLQMNSLKPEDTAVYYCNAGSFSRKARRYDYWGQGTQVTVSS | high polyreactivity
QVQLGESGGGLVQAGGSLRLSCAASGSTFNENAMGWYRQAPGKERELVAAISNDGSTTYADSVKGRFTISRDNAKNTVYLQMNSLKPEDTALYYCNAVSYIDTQSSLGDSWGQGTQVTVSS | low polyreactivity
QVQLGESGGGLVQAGGSLRLSCAASGSTFVGSAMGWYIQAPGKDRELVAAISYSGGSTYYADSVKGRFTISRDNAKNTVYLQMNSLKPEDTAVYYCAAEWSRHYYYGPRYHYWGQGTQVTVSS | low polyreactivity
QVQLGESGGGLVQAGGSLRLSCAASGSTLYPYAMGWNRQATGTERELFAAISWSGTRTYYADSVKGRFTISRDNAKNTVYLQMNSLKQEDTAVYYCAKSRTRYPSNTKYDYWGQGTQVTVSS | high polyreactivity
QVQLGESGGGLVQAGGSLRLSCADSGFTFASNAMGWYRQAPAKERELVAAISTSGGSTYYADSVKGRFTISRDNAKNTVYLQMNSLKPEDTAVYYFAVAVNGVSRIKYYYWGQGTQVTVSS | high polyreactivity
QVQLGESGGGLVQAGGSLRLSCASSGRILNINSMGWYRQAPGKERELVAAITWRGGRTFYADSVKGRFTISRDYAKNKVYFEMNSLKPEDTAVYYCAASSNTWYPTGYYWGQGSQVTVSS | high polyreactivity
QVQLGESGGGLVQAGGSLRLSGAASGRTFNDYTMGWYRPAPGKERELVAAISSSGVLTYYADSVKGRFTISRDNAKYTVYLQMNSLKPEDTAVDYAKRAGYDRRWTYDYRGQGTQVTVSS | high polyreactivity
QVQLGESGGGLVQAGGSLRLTCAASGFTFRGYAMGWYRQAPGKEWELVAANSRRGGSTYYADSVKGRFTISRDNAKYTVYLQMNSLKPEETAVYYCNAVGRFYFRFPPNNEYDYWGQGTQVTVSS | high polyreactivity
QVQLGESGGGLVQAGGSLRLTCAASGYIFISDAMGLYRQAHGKEREFVAAITGDGGSTYADSVKGRFTISRYNAKNTVYLQMNSLKPEDTAVYYCAAEGQLFDLYDYWGQGTEVTVSS | low polyreactivity
QVQLGESGGGLVQAGGSLSLSCAASGSIFRNYAMGWYRPAPGKEWELVAAITRGGPTNYADSVKGRVTISRDHAKNTVYLQMNRQKPEDTAVYYCNAAWRLGWTHWETTRYVYWGQGTHVTVSS | high polyreactivity
QVQLGESGGRLVQAGGSIRLTCAASGRTFVTYAMAWSRQAPGNEWELVAGIRPGGSTYYADSVKGRFTISRDNAKNTVYLQMNSLKPEDTAVYYCAASRTSWQGYNYWGQGTQVTVSS | high polyreactivity

Sequence | polyreactivity (PSR sort gate)
QVQLGESGGRLVQAGGSLRLSCAASGRTIVINAMGWYRKEPGKERELVAAISRGGSTNYADSVKGRFTISRDNAKNTVYLQMNRLKPEDTAVYYCKADYPNWWSPFDYWGQGTQVTVSS | low polyreactivity
QVQLGETGGGLVQAGGSLRLSCAASGFNFGYYVMGWYRQAPGKERELVAAITSGGSKYYADSVKGRFTISRDNAKNTVYLQMNSLKPEDTAVYYCNKYGVVLPGFDEWGQGTQVTVSS | high polyreactivity
QVQLHESGCGLVQAGGSLRLSCAASGTISYAGPMGWYRPAPGNEREFVAGIGVGSNTNYADSVKGRYTIIRDNATNTVYLQMNSLKPEDTAVYYCAVGGYAPLGRPYWGQGTQVTVSS | low polyreactivity
QVQLHESGCVLVQAGGSLRLRCAASRNISGSSDLGWYHQAPGKEREFVASITSGGTTYYADSVKVRFTISRDNAKNTVYLQMNSLKPEDTAVYYCAVGDPADAEFGYWGQGTQVTVSS | low polyreactivity
QVQLHESGGGLCRRAAASSGAASGTISFLYYMGWYRQAPGQEREFVAGINNGTTTNYADSVKGRFTNSRDNAKNTVYLQMNSLKPEDTAVYYCAVRKPYKATTASGFEYWGQGTQVTVSS | high polyreactivity
QVQLHESGGGLVQAGGSLRLSCAASGTISYAGPIGWYRQAPGKEREFVAGIGVCSNTNYADSVKGRYTIIRDNAKNTVYLQMNSLKPEDTAVYYCAAETDSWVGGYSYASLDYWGQGTQVTVSS | low polyreactivity
QVQLHESGGGLVQAGGSLRLSCAASGTISYAGPMGWYRQAPGKEREFVAGIGVGSNTNYADSVKGRYTIIRDNAKNTVYLQMNSLKPEDTAVYYCAVGGYAPLGRPDWGQGTQVTVRS | low polyreactivity
QVQLHESGGGLVQAGGSLRLSCAASGTISYAGPMGWYRQAPGKEREFVAGIGVGSNTNYADSVKGRYTIIRDNAKNTVYLQMTSLKPEDTAVYYCAVGGYAPLGRPYWGQGTQVTVSS | low polyreactivity
QVQLHESGGGLVQARGSLRLSCAASGTSSNAGPMGWYRQAPGKEREFVAGIGVGSNTNYADSVKGRYTIIRDNAKNTVYLQMNSLKPEDTAVYYCAVGGYAPLGRPYWGQGTQVTVSS | low polyreactivity
QVQLHESGGGLVQSGGSLRLICAASGSISHYIFMGWYRQAPGKEREFVAGIGYGGTTNNADSVKGRFTISRDNAKNTVYLQMNSLKPEDTAMYYCAAREATEFYLDYWGQGTQVTVSS | low polyreactivity
QVQLHESGRGLVQAGGSLRLSCAASGTISYAGQMGWYRQAPGKEREFVAAIGVGSNTNYADIVKGRYTIIRYNAKNSVYLQIISLKPEDTAVYYCAVGCYAPLGRPFWGQGTQVTVSS | low polyreactivity
QVQLHESGVGLVQAGGGLRLSCAATGSISSTGFMGWYRQAPGKEREPVAAIAPGTTTYYADSVKGRFTISRDNAKNTVYLQMNSLRPEDTAVYYCAVFTDNRVAFLYWGQGTQVTVSS | low polyreactivity
QVQLIESGGGLVKAGGSLRLSCAASGSIFYRNTMGWYRQAPGKERELVARISWSGGRTYYADSVKGRFTISRDNAKNTVYLQMNSLKPEDTAVYYCAASTYGQRGTSYGYWGQGTQVTVSS | low polyreactivity
QVQLIESGGGLVQAGGSLRLSCAASGFTFYYNTMGWYRQAPGKERELVAAITRSVGSTYYADSVKGRFTISRDNAKNTVYLQMNSLKPEDTAVYYCAARRLGYYRKVKELDYWGQGTQVTVSS | high polyreactivity
QVQLIESGGGLVQAGGSLRLSCAASGSIFAANAMGWYRQAPGKEREFVASISYTGASTYADSVKGRFTISRDNAKNTVYLQINSLKPEDTAVYYCAKDGYWTGLDPYYYWGQGTQVTVSS | low polyreactivity
QVQLKERGGGLVQAGGSLRLSCAAIGPISRRSTMGWYRQAPGKERELVTDITRGTNTNYADSVKGRFTISRDNAKNTEYLQMNSLKPEDTAVYYCEAYGVLKPSRGDAVFHRYWGQGTQVTVSS | low polyreactivity
QVQLKESGGCLVPSRGSLRQSCAASGSISGPHVKGWYRQAPGKEREFVAAINVGANTYYADNVKGRFTISRDNANNPGYLQMNSLKPEDTAVYFCAAVYFGDIGHEYWGQGTQVTVSC | low polyreactivity
QVQLKESGGGLVQSGGSLRLSCAASGNIVDADIMGWYRQAPGKERELVASITDGGSTNYADSVKGRFTISRDNAKNTVYLQMNSLKPEDTAVYYCAAIAYPDIPTYFDYDSEYFYWGQGTQVTVSS | low polyreactivity
QVQLLDSGGGLVQAGGSLSLSCAASGSSFRYYAMGWYRPAPRKEREFVADISWSGSSTYYADSVKGRFTISRDNSKITVYLLMNSLTPEDTAVYYCAARYRYRSSSYDYWGQGTQVTVSS | high polyreactivity
QVQLLESCVGLVHAGGSLRLSCAASGFIFGTNAMGWSRQAPGKEREWVAAINGRGGGTYYADSVKGRFTISRDNAKNTVYLQMNSLKQEDTAVYYCAASRFDYWGQGTQVTVSS | low polyreactivity
QVQLLESGAGLLQAGGSLRLSCAASGRTFLKYAMGWYRQAPGKERELVAAISRGDSTYYADSVKGRFTISRDNAKNTVYLQMNSLKTEDTAVYFCAKPGYYVRYGYWGQGTQVTVSS | high polyreactivity

Reference: the nanobody polyreactivity screen of Harvey et al. (2022)
